Laboratory results from publication PMC11283454 (Nature Communications, 2024).

Target: the molecule itself
Experiment: MST

B1: human ATE1 isoform 2 (arginyl-tRNA-protein transferase 1), recombinant (enzyme, UniProt O95260-2 1-518, looked up)
chain: MAFWAGGSPSVVDYFPSEDFYRCGYCKNESGSRSNGMWAHSMTVQDYQDLIDRGWRRSGKYVYKPVMNQTCCPQYTIRCRPLQFQPSKSHKKVLKKMLKFLAKGEVPKGSCEDEPMDSTMDDAVAGDFALINKLDIQCDLKTLSDDIKESLESEGKNSKKEEPQELLQSQDFVGEKLGSGEPSHSVKVHTVPKPGKGADLSKPPCRKAKEIRKERKRLKLMQQNPAGELEGFQAQGHPPSLFPPKAKSNQPKSLEDLIFESLPENASHKLEVRLVPVSFEDPEFKSSFSQSFSLYVKYQVAIHQDPPDECGKTEFTRFLCSSPLEAETPPNGPDCGYGSFHQQYWLDGKIIAVGVIDILPNCVSSVYLYYDPDYSFLSLGVYSALREIAFTRQLHEKTSQLSYYYMGFYIHSCPKMKYKGQYRPSDLLCPETYVWVPIEQCLPSLENSKYCRFNQDPEAVDEDRSTEPDRLQVFHKRAIMPYGVYKKQQKDPSEEAAVLQYASLVGQKCSERMLLFRN
modifications: red Tris-NTA dye on the labelled copy in MST
For B1, the Kd was 8.5 µM.
